# Reference: article PMC9482650, “Quantitative fragmentomics allow affinity mapping of interactomes” (Nature Communications, 2022)
# T1: SHROOM3, Q8TF72
# T1 sequence (Q8TF72 20-120, limits assumed, looked up): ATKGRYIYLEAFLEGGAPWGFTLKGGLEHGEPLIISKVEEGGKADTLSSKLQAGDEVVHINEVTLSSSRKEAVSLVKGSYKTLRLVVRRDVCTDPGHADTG
# T2: PDLIM3, Q53GG5
# T2 sequence (Q53GG5 1-94, limits assumed, looked up): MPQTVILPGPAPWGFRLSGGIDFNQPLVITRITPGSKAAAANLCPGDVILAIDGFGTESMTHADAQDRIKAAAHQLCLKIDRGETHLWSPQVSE
# T3: LNX2_4, Q8N448
# T3 sequence (Q8N448 595-690, limits assumed, looked up): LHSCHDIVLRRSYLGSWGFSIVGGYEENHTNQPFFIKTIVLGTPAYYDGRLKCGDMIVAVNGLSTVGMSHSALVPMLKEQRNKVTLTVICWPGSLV
# T4: MPDZ_13, O75970
# T4 sequence (O75970 1982-2070, limits assumed, looked up): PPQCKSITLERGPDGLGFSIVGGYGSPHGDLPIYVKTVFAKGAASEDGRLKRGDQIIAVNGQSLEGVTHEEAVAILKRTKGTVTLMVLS
# T5: USH1C_3, Q9Y6N9
# T5 sequence (Q9Y6N9 447-547, limits assumed, looked up): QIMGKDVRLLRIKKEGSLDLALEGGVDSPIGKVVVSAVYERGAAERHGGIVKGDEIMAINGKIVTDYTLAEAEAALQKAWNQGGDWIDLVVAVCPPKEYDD
# T6: USH1C_1, Q9Y6N9
# T6 sequence (Q9Y6N9 82-179, limits assumed, looked up): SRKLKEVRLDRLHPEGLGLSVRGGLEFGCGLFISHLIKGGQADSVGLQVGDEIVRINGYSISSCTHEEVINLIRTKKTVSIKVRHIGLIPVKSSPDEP
# T7: PDZD7_1, Q9H5P4
# T7 sequence (Q9H5P4 81-178, limits assumed, looked up): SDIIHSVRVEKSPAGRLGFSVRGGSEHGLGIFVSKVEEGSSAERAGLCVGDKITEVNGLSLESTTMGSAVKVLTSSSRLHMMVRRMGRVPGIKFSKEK
# T8: RGS12, O14924
# T8 sequence (O14924 17-108, limits assumed, looked up): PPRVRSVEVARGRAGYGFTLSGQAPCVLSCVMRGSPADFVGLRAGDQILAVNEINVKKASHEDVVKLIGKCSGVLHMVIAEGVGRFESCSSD
# T9: PTPN13_4, Q12923
# T9 sequence (Q12923 1783-1878, limits assumed, looked up): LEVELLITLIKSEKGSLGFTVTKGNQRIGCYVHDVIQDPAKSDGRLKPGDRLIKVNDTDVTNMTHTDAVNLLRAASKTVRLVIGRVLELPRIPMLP
# T10: PDZD2_3, O15018
# T10 sequence (O15018 581-682, limits assumed, looked up): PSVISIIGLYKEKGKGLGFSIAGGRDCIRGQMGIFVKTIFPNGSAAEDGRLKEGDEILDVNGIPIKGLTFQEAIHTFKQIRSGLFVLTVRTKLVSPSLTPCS
# T11: SIPA1L3, O60292
# T11 sequence (O60292 961-1052, limits assumed, looked up): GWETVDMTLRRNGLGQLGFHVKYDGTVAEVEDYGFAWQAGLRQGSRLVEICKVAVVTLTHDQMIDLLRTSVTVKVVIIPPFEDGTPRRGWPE
# T12: NHERF1_1, O14745
# T12 sequence (O14745 9-104, limits assumed, looked up): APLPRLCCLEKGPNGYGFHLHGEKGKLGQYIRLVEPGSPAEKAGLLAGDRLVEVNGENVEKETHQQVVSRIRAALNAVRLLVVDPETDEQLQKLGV
# T13: PDZD2_1, O15018
# T13 sequence (O15018 80-192, limits assumed, looked up): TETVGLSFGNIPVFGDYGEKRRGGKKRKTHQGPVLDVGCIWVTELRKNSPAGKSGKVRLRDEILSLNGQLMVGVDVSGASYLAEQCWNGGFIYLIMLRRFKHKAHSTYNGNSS
# T14: NHERF3_2, Q5T2W1
# T14 sequence (Q5T2W1 129-225, limits assumed, looked up): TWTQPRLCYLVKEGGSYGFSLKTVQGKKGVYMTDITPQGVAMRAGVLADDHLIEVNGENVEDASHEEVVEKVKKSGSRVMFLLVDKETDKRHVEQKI
# T15: PTPN4, P29074
# T15 sequence (P29074 512-599, limits assumed, looked up): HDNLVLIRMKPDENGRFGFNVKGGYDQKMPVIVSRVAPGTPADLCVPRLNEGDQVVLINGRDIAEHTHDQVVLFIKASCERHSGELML
# B1: TJP2, Q9UDY2 (peptide)
# chain: QSARYRDTEL
# B2: HPV67-E6, A4U7F2 (peptide)
# chain: SRPQRTQTQV
# B3: KIR3DL3, Q8N743 (peptide)
# chain: PKTPPTDTSV
# B4: CYSLTR2, Q9NS75 (peptide)
# chain: SVWLRKETRV
# B5: HPV16-E6, P03126 (peptide)
# chain: SSRTRRETQL
# B6: GRASP, Q7Z6J2 (peptide)
# chain: RSLEEEESQL
# Molecular target: T1, SHROOM3, Q8TF72
# Assay: holdup assay
# Set-up: key: below the threshold = too weak to quantify, mostly under pKd 3.1 to 4
# Settings: plain residues with an end cap or a label only (N-terminal biotin on a linker: ttds)
row,Binder,pKd
1,B1,below the threshold
2,B2,below the threshold
3,B3,below the threshold
4,B4,below the threshold
5,B5,below the threshold
6,B6,below the threshold

# Molecular target: IL16_2, Q14005
# Assay: holdup assay
# Set-up: key: below the threshold = too weak to quantify, mostly under pKd 3.1 to 4
# Settings: plain residues with an end cap or a label only (N-terminal biotin on a linker: ttds)
# IL16_2, Q14005, sequence (Q14005 350-450): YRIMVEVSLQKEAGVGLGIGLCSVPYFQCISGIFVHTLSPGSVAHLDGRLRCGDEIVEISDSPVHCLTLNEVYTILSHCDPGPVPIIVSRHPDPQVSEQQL
row,Binder,pKd
1,B1,below the threshold
2,B2,4.25
3,B3,below the threshold
4,B4,below the threshold
5,B5,below the threshold
6,B6,below the threshold

# Molecular target: T2, PDLIM3, Q53GG5
# Assay: holdup assay
# Set-up: key: below the threshold = too weak to quantify, mostly under pKd 3.1 to 4
# Settings: plain residues with an end cap or a label only (N-terminal biotin on a linker: ttds)
row,Binder,pKd
1,B1,below the threshold
2,B2,below the threshold
3,B3,below the threshold
4,B4,below the threshold
5,B5,3.88
6,B6,below the threshold

# Molecular target: PTPN13_2, Q12923
# Assay: holdup assay
# Set-up: key: below the threshold = too weak to quantify, mostly under pKd 3.1 to 4
# Settings: plain residues with an end cap or a label only (N-terminal biotin on a linker: ttds)
# PTPN13_2, Q12923, sequence (Q12923 1363-1462): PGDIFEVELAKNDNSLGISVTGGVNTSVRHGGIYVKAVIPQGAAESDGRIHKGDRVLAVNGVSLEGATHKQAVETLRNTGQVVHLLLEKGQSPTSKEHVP
row,Binder,pKd
1,B1,below the threshold
2,B2,below the threshold
3,B3,below the threshold
4,B4,below the threshold
5,B5,below the threshold
6,B6,below the threshold

# Molecular target: T3, LNX2_4, Q8N448
# Assay: holdup assay
# Set-up: key: below the threshold = too weak to quantify, mostly under pKd 3.1 to 4
# Settings: plain residues with an end cap or a label only (N-terminal biotin on a linker: ttds)
row,Binder,pKd
1,B1,below the threshold
2,B2,below the threshold
3,B3,below the threshold
4,B4,below the threshold
5,B5,below the threshold
6,B6,below the threshold

# Molecular target: PARD3B_2, Q8TEW8
# Assay: holdup assay
# Set-up: key: below the threshold = too weak to quantify, mostly under pKd 3.1 to 4
# Settings: plain residues with an end cap or a label only (N-terminal biotin on a linker: ttds)
# PARD3B_2, Q8TEW8, sequence (Q8TEW8 376-471): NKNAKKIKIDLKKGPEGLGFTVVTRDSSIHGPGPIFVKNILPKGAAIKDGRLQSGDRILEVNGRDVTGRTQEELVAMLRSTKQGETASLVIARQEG
row,Binder,pKd
1,B1,below the threshold
2,B3,4.37
3,B4,below the threshold
4,B5,below the threshold
5,B6,below the threshold

# Molecular target: T4, MPDZ_13, O75970
# Assay: holdup assay
# Set-up: key: below the threshold = too weak to quantify, mostly under pKd 3.1 to 4
# Settings: plain residues with an end cap or a label only (N-terminal biotin on a linker: ttds)
row,Binder,pKd
1,B1,below the threshold
2,B2,below the threshold
3,B3,below the threshold
4,B4,below the threshold
5,B5,below the threshold
6,B6,below the threshold

# Molecular target: T5, USH1C_3, Q9Y6N9
# Assay: holdup assay
# Set-up: key: below the threshold = too weak to quantify, mostly under pKd 3.1 to 4
# Settings: plain residues with an end cap or a label only (N-terminal biotin on a linker: ttds)
row,Binder,pKd
1,B1,below the threshold
2,B3,below the threshold
3,B4,below the threshold
4,B5,below the threshold
5,B6,below the threshold

# Molecular target: Q92614
# Assay: holdup assay
# Set-up: key: below the threshold = too weak to quantify, mostly under pKd 3.1 to 4
# Settings: plain residues with an end cap or a label only (N-terminal biotin on a linker: ttds)
row,Binder,pKd
1,B1,below the threshold
2,B3,below the threshold
3,B4,below the threshold
4,B6,below the threshold

# Molecular target: T6, USH1C_1, Q9Y6N9
# Assay: holdup assay
# Set-up: key: below the threshold = too weak to quantify, mostly under pKd 3.1 to 4
# Settings: plain residues with an end cap or a label only (N-terminal biotin on a linker: ttds)
row,Binder,pKd
1,B1,below the threshold
2,B2,below the threshold
3,B3,below the threshold
4,B4,below the threshold
5,B5,below the threshold
6,B6,below the threshold

# Molecular target: Q9Y3R0
# Assay: holdup assay
# Set-up: key: below the threshold = too weak to quantify, mostly under pKd 3.1 to 4
# Settings: plain residues with an end cap or a label only (N-terminal biotin on a linker: ttds)
row,Binder,pKd
1,B1,below the threshold
2,B3,below the threshold
3,B4,below the threshold
4,B6,below the threshold

# Molecular target: T7, PDZD7_1, Q9H5P4
# Assay: holdup assay
# Set-up: key: below the threshold = too weak to quantify, mostly under pKd 3.1 to 4
# Settings: plain residues with an end cap or a label only (N-terminal biotin on a linker: ttds)
row,Binder,pKd
1,B1,below the threshold
2,B2,below the threshold
3,B3,below the threshold
4,B4,below the threshold
5,B5,below the threshold
6,B6,below the threshold

# Molecular target: T8, RGS12, O14924
# Assay: holdup assay
# Set-up: key: below the threshold = too weak to quantify, mostly under pKd 3.1 to 4
# Settings: plain residues with an end cap or a label only (N-terminal biotin on a linker: ttds)
row,Binder,pKd
1,B1,below the threshold
2,B2,below the threshold
3,B3,below the threshold
4,B4,below the threshold
5,B5,4.37
6,B6,below the threshold

# Molecular target: TJP1_1, Q07157
# Assay: holdup assay
# Set-up: key: below the threshold = too weak to quantify, mostly under pKd 3.1 to 4
# Settings: plain residues with an end cap or a label only (N-terminal biotin on a linker: ttds)
# TJP1_1, Q07157, sequence (Q07157 18-120): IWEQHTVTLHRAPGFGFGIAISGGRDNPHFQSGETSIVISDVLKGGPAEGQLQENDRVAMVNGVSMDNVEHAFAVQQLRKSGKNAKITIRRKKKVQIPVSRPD
row,Binder,pKd
1,B1,below the threshold
2,B2,below the threshold
3,B3,below the threshold
4,B4,4.78
5,B5,4.22
6,B6,below the threshold

# Molecular target: T9, PTPN13_4, Q12923
# Assay: holdup assay
# Set-up: key: below the threshold = too weak to quantify, mostly under pKd 3.1 to 4
# Settings: plain residues with an end cap or a label only (N-terminal biotin on a linker: ttds)
row,Binder,pKd
1,B1,below the threshold
2,B2,below the threshold
3,B3,below the threshold
4,B4,below the threshold
5,B5,below the threshold
6,B6,below the threshold

# Molecular target: T10, PDZD2_3, O15018
# Assay: holdup assay
# Set-up: key: below the threshold = too weak to quantify, mostly under pKd 3.1 to 4
# Settings: plain residues with an end cap or a label only (N-terminal biotin on a linker: ttds)
row,Binder,pKd
1,B1,below the threshold
2,B2,below the threshold
3,B3,4.08
4,B4,below the threshold
5,B5,below the threshold
6,B6,below the threshold

# Molecular target: T11, SIPA1L3, O60292
# Assay: holdup assay
# Set-up: key: below the threshold = too weak to quantify, mostly under pKd 3.1 to 4
# Settings: plain residues with an end cap or a label only (N-terminal biotin on a linker: ttds)
row,Binder,pKd
1,B1,below the threshold
2,B2,below the threshold
3,B3,below the threshold
4,B4,below the threshold
5,B5,below the threshold
6,B6,below the threshold

# Molecular target: T12, NHERF1_1, O14745
# Assay: holdup assay
# Set-up: key: below the threshold = too weak to quantify, mostly under pKd 3.1 to 4
# Settings: plain residues with an end cap or a label only (N-terminal biotin on a linker: ttds)
row,Binder,pKd
1,B1,below the threshold
2,B2,below the threshold
3,B3,below the threshold
4,B4,below the threshold
5,B5,4.15
6,B6,4.46

# Molecular target: T13, PDZD2_1, O15018
# Assay: holdup assay
# Set-up: key: below the threshold = too weak to quantify, mostly under pKd 3.1 to 4
# Settings: plain residues with an end cap or a label only (N-terminal biotin on a linker: ttds)
row,Binder,pKd
1,B1,below the threshold
2,B2,below the threshold
3,B3,4.3
4,B4,below the threshold
5,B5,below the threshold
6,B6,below the threshold

# Molecular target: T14, NHERF3_2, Q5T2W1
# Assay: holdup assay
# Set-up: key: below the threshold = too weak to quantify, mostly under pKd 3.1 to 4
# Settings: plain residues with an end cap or a label only (N-terminal biotin on a linker: ttds)
row,Binder,pKd
1,B1,below the threshold
2,B2,below the threshold
3,B3,below the threshold
4,B4,below the threshold
5,B5,below the threshold
6,B6,below the threshold

# Molecular target: AHNAK2, Q8IVF2
# Assay: holdup assay
# Set-up: key: below the threshold = too weak to quantify, mostly under pKd 3.1 to 4
# Settings: plain residues with an end cap or a label only (N-terminal biotin on a linker: ttds)
# AHNAK2, Q8IVF2, sequence (Q8IVF2 108-193): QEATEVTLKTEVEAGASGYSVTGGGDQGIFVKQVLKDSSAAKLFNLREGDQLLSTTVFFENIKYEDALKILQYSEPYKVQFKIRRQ
row,Binder,pKd
1,B1,below the threshold
2,B2,below the threshold
3,B3,below the threshold
4,B4,below the threshold
5,B5,below the threshold
6,B6,4.3

# Molecular target: Q8TEW0
# Assay: holdup assay
# Set-up: key: below the threshold = too weak to quantify, mostly under pKd 3.1 to 4
# Settings: plain residues with an end cap or a label only (N-terminal biotin on a linker: ttds)
row,Binder,pKd
1,B1,below the threshold
2,B3,below the threshold
3,B4,below the threshold
4,B6,below the threshold

# Molecular target: T15, PTPN4, P29074
# Assay: holdup assay
# Set-up: key: below the threshold = too weak to quantify, mostly under pKd 3.1 to 4
# Settings: plain residues with an end cap or a label only (N-terminal biotin on a linker: ttds)
row,Binder,pKd
1,B1,4.48
2,B2,below the threshold
3,B3,below the threshold
4,B4,4.52
5,B5,4.61
6,B6,below the threshold
